PMC9486808 (ACS Chemical Biology, 2022)
No end group written: not given here.

B1: Fluorescein-labeled macrocyclic peptide S5 (peptide)
chain: YVLFRWDHGTLATHWVC
modifications: thioether (positions not given here); not fully specified (N-terminus, bridges); also: fluorescein (FAM) label, position not given here
B2: Fluorescein-labeled macrocyclic peptide L2 (peptide)
chain: YWHKNKYVLTYSCLFAA
modifications: thioether (positions not given here); not fully specified (N-terminus, bridges); also: fluorescein (FAM) label, position not given here
B3: Fluorescein-labeled macrocyclic peptide L4 (peptide)
chain: YRWVWTSFFSEPYFVVC
modifications: thioether (positions not given here); not fully specified (N-terminus, bridges); also: fluorescein (FAM) label, position not given here
B4: Fluorescein-labeled macrocyclic peptide S3 (peptide)
chain: YLKIYWSKIHGLVSEWC
modifications: thioether (positions not given here); not fully specified (N-terminus, bridges); also: fluorescein (FAM) label, position not given here

target: Recombinant soluble trimeric H1 HA ectodomain of A/California/04/2009 (H1N1) (Influenza A virus A/California/04/2009 …); experiment: fluorescence polarisation; details: both partners purified

Q: How did the Kd turn out when B1 was run?
A: Its Kd is ≤ 1 nM.

Q: Which Kd does the source give for B2 here?
A: The Kd was 2.4 nM.

Q: With B3 as the binder, how does the Kd read?
A: Its Kd is ≤ 1 nM.

Q: For B4, which Kd is on record?
A: Its Kd is ≤ 1 nM.
